Columns and labels:
[1] = target: IL-12 receptor on HEK-Blue IL-12 cells (UniProt P42701); assay: cell-based or functional assay
[2] = target: recombinant murine CTLA-4-human IgG1 Fc chimera (R&D Systems) (mouse; human) (UniProt P09793); assay: competitive ELISA; competitor mouse CD80 coated at 100 ng/ml, 10 ng/ml murine CTLA-4-human IgG1 Fc mixed with HEK293T supernatant, anti-human IgG1-HRP
[3] = target: recombinant murine CTLA-4-human IgG1 Fc chimera (R&D Systems) (mouse; human) (UniProt P09793); assay: competitive ELISA; competitor mouse CD86 coated at 100 ng/ml, 10 ng/ml murine CTLA-4-human IgG1 Fc mixed with HEK293T supernatant, anti-human IgG1-HRP
[4] = target: mouse TGF-β1 (R&D systems) (mouse) (UniProt P04202); assay: direct ELISA with mouse TGF-β1; concentrated supernatant of transfected HEK293T cells
[5] = target: mouse TGF-β1 (R&D systems) (mouse) (UniProt P04202); assay: direct ELISA with mouse TGF-β1; supernatant of transfected HEK293T cells

IL-12 receptor on HEK-Blue IL-12 cells, sequence (Q99665 24-862, chain 2 of 2, other chains not shown): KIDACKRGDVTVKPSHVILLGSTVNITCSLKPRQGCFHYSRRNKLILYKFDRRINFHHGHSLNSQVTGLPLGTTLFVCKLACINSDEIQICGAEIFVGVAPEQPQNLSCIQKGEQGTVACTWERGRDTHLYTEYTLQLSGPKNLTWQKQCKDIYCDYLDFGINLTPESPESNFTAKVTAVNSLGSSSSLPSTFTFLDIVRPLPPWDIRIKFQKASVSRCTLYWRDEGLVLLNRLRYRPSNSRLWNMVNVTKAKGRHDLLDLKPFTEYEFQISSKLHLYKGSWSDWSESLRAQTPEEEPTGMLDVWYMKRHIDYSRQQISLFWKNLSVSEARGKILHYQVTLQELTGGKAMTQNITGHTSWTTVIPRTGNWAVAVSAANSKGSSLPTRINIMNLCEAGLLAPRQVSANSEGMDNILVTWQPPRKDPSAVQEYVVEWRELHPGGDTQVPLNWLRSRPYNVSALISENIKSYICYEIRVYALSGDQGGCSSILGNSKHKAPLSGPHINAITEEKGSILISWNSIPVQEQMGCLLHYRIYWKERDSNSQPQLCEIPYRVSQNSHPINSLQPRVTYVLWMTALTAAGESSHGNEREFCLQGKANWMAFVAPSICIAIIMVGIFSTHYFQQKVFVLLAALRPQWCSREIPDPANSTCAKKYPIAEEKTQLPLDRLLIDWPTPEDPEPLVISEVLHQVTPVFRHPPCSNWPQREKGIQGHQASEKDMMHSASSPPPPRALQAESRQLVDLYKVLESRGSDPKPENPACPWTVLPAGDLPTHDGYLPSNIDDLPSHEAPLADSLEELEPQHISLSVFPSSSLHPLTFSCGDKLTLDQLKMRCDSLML
mouse TGF-β1 (R&D systems) (mouse), sequence (P04202 279-390 limits assumed): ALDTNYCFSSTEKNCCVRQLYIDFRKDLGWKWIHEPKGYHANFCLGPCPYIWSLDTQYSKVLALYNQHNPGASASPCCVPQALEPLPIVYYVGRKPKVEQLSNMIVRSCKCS
recombinant murine CTLA-4-human IgG1 Fc chimera (R&D Systems) (mouse; human), sequence (P09793 36-162 limits assumed, change not shown): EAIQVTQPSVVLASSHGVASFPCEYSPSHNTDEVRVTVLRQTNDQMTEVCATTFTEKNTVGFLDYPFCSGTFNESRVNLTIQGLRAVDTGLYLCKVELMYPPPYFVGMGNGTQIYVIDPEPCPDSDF

Substance	STAT4-SEAP (Absorbance/% GFP); transfected HEK cells co-cultured with HEK-Blue IL-12 cells (Absorbance/% GFP) [1]	other results
huIL-12p70 (ligand)	0.11	–
muIL-12p70 (ligand)	0.11	–
ipilimumab scFv antibody fragment	–	% CD80 Blockade Activity [2]: 7%; % CD86 Blockade Activity [3]: 32.5%
Soluble mouse TGFβ receptor II Fc (from UniProt Q62312 24-166) (Fc fusion)	–	Absorbance at 450 nm (absorbance (450 nm)) [4]: 1.52; Absorbance at 450 nm (absorbance (450 nm)) [5]: 1.51

Continued, in another order:

STAT4-SEAP (Absorbance/% GFP); transfected HEK cells co-cultured with HEK-Blue IL-12 cells (Absorbance/% GFP) [1]	Substance	other results
0.117	Mouse membrane bound IL-12p70 (ligand)	–
0.237	Human membrane bound IL-12p70 (ligand)	–

Reference: patent US20240293478A1
